Measured values: patent US20260217825A1 (CHIMAGEN BIOSCIENCES, published 2026)
Positions count from the first letter of the chain named. Numbers in names are those of the source. Like-named read-outs stand apart in the source and are kept apart here. Each block holds one binder with its values, some of them ahead of it.

What was measured:
[1] = molecular target: T1, recombinant GPRC5D antigen (Human GPRC5D protein-Flag-His tag (51.8KD) ACRO Cat: GPD-H52D3) (human, UniProt Q9NZD1 1-345, limits assumed); assay: BLI (Octet R8), recombinant GPRC5D antigen
T1 construct: Bought protein; also called CPRG5D; not shown: Flag-His tag
Text: The recombinant GPRC5D antigen (Human GPRC5D protein-Flag-His tag (51.8KD) ACRO Cat: GPD-H52D3) was immobilized on a chip and detected by Octet® R8 biomolecular interaction analysis system.

[2] = molecular target: T2, human GPRC5D on cells (human, UniProt Q9NZD1 1-345); assay: flow cytometry, MM.1R cell binding
T2 construct: whole, on cells; Either overexpressed in HEK293, CHOS or HEK293T cells, or naturally expressed on human myeloma cell lines; also called hGPRC5D; HEK293-hGPRC5D
Experimental: (§1) After the cells were digested with TrypLE, the digested cells were centrifuged and resuspended in a DPBS solution containing 2% BSA (FACS buffer, 4° C.), added into a 96-well plate with a U-shaped bottom in an amount of 5× 10⁵ cells/100 μl/well, added with antibody diluted over concentration gradient, and incubated at 4° C. for 1 hr. After centrifugation, the supernatant was discarded. 100 μl of anti-human IgG Fc-APC secondary antibody was added to each well and incubated at 4° C. for 1 hr. Then the cells were washed once with a FACS buffer, and resuspended in 200 μl FACS buffer. The fluorescence signal was read on BD CantoII.

[3] = molecular target: T2, human GPRC5D on cells; assay: FACS on NCI-H929 cells (natural GPRC5D), anti-human IgG Fc-APC secondary; fit table under the curves
Experimental: as §1

[4] = molecular target: T2, human GPRC5D on cells; assay: flow cytometry, RPMI-8226 cell binding
Experimental: as §1

[5] = molecular target: T2, human GPRC5D on cells; assay: flow cytometry, NCI-H929 cell binding
Experimental: as §1

[6] = molecular target: T2, human GPRC5D on cells; assay: FACS on HEK293 cells expressing hGPRC5D (sheet title: 293T-hGPRC5D sorted), anti-human IgG Fc-APC secondary; fit table under the curves, unit from the axis Log Conc.(ug/ml)
Experimental: (§2) After centrifugation, […] and CHOS-hGPRC5D cells expressing hGPRC5D were resuspended in a DPBS solution (FACS buffer, 4° C.) containing 2% BSA, added to a 96-well plate with a U-shaped bottom in an amount of 5×10⁵ cells/100 μl/well, added with antibody diluted over concentration gradient, and incubated at 4° C. for 1 hr. After centrifugation, the supernatant was discarded. 100 μl of anti-human IgG Fc-APC secondary antibody was added to each well and incubated at 4° C. for 1 hr. Then the cells were washed once with a FACS buffer, and resuspended in 200 μl FACS buffer. The fluorescence signal was read on BD CantoII.

[7] = molecular target: T2, human GPRC5D on cells; assay: FACS on HEK293 cells expressing hGPRC5D (sheet title: 293T-hGPRC5D sorted), anti-human IgG Fc-APC secondary; fit table under the curves
Experimental: as §2

[8] = molecular target: T2, human GPRC5D on cells; assay: FACS on CHOS cells expressing hGPRC5D (sheet title: CHOS-hGPRC5D sorted), anti-human IgG Fc-APC secondary; fit table under the curves, unit from the axis Log Conc.(ug/ml)
Experimental: as §2

[9] = molecular target: T2, human GPRC5D on cells; assay: FACS on CHOS cells expressing hGPRC5D (sheet title: CHOS-hGPRC5D sorted), anti-human IgG Fc-APC secondary; fit table under the curves
Experimental: as §2

[10] = molecular target: T2, human GPRC5D on cells; assay: FACS on RPMI-8226 cells (natural GPRC5D), anti-human IgG Fc-APC secondary; fit table under the curves
Experimental: as §1

[11] = molecular target: T2, human GPRC5D on cells; assay: FACS on MM.1R cells (natural GPRC5D), anti-human IgG Fc-APC secondary; fit table under the curves
Experimental: as §1

[12] = molecular target: T3, cynomolgus monkey GPRC5D on HEK293T cells (cynomolgus monkey); assay: cell-based binding assay on HEK293T-cynoGPRC5D
T3 construct: whole, on cells; also called HEK293T-cynoGPRC5D; Cynomolgus GPRC5D
Experimental: (§3) HEK293T-hGPRC5D or HEK293T-cynoGPRC5D cells in logarithmic growth phase were inoculated into a 96-well culture plate, and the antibodies at different concentrations (200, 66.7, 22.22, 7.41, 2.47, 0.82, 0.27, 0.09, 0.03, and 0.01 nM) was added. 2 duplicate wells were set for each concentration and a negative control (PBS) well was also set. The cells were incubated at 25° C. for about 60 minutes and then developed and detected. The raw data of the test was the difference between the detection wavelength and the reference wavelength. A dose-response curve was fitted using statistical software, based on OD value and the logarithmic value of the concentration, from which the EC50 was obtained.

[13] = molecular target: T1, recombinant GPRC5D antigen (Human …); assay: BLI (Octet R8), recombinant GPRC5D antigen; remark: listed apart in the source
Text: (§4) The recombinant CD3e antigen (Human CD3 epsilon Protein, His Tag, ACRO Cat: CDE-H5223) and recombinant GPRC5D antigen (Human GPRC5D protein-Flag-His tag (51.8KD) ACRO Cat: GPD-H52D3) were immobilized on a chip and detected by Octet® R8 biomolecular interaction analysis system.

[14] = molecular target: T4, recombinant CD3e antigen (Human CD3 epsilon Protein, His Tag, ACRO Cat: CDE-H5223) (human, UniProt P07766 23-126); assay: BLI (Octet R8), recombinant CD3e antigen
T4 construct: Bought protein; also called CD3 antigen; not shown: His tag
Text: as §4

[15] = molecular target: T2, human GPRC5D on cells; assay: cell-based binding assay on HEK293T-hGPRC5D
Experimental: as §3

T4 sequence (P07766 23-126 limits assumed): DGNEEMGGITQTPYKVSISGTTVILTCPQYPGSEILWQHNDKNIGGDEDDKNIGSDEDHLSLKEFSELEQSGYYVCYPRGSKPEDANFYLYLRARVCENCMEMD
T1 sequence (Q9NZD1 whole entry): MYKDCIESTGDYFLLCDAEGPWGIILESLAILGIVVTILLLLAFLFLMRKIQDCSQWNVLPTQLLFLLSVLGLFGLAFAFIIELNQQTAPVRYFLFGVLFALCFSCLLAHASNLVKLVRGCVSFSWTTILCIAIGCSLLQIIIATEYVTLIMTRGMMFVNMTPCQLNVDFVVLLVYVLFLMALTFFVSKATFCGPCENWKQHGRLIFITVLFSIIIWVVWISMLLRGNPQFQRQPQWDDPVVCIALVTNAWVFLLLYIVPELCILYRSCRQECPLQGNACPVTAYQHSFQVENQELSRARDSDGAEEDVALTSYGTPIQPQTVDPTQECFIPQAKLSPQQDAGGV
T2 sequence (Q9NZD1 whole entry): as above

B1: humanized antibody 22Mono5UQY (antibody, human IgG1, V domains shown)
VH: QVQLQESGPGLVKPSETLSLTCTASGYPFTNYWMHWVRQPPGKGLEWIGEINPSNGRTNYNEKFKSRATLSLDKSKNQASLNLDSVSAADTAIYYCARGFAYWGKGSTVTVSS
VL: AIQLTQSPSSLSASVGDRVTITCSASSSVSFMHWYQQKPGKAPKRWIYDTTKLASGVPSRFSGSGSGTDYTFTISSLQPEDIATYYCQQWNSHPLTFGPGTKVDIK
notes: also called 22MonoSUQY
Kd [1]: 5.67 nM | koff [1]: 0.000489 s⁻¹ | kon [1]: 86200 M⁻¹ s⁻¹

B2: humanized antibody 22Mono5JO4 (antibody, human IgG1, V domains shown)
VH: QVQLVQSGAEVKKPGSSVKVSCRASGYPFTNYWMHWVRQAPGQGLEWIGEINPSNGRTNYNEKFKSRATLTLDKLTSTAYMELSSLTSEDTALYYCARGFAYWGQGTLVTVSS
VL: EIVLTQSPGTLSLSPGERATLSCSASSSVSFMHWYQQKPGQAPRRWIYDTTKLASGIPDRFSGSGSGTDYTLTISRLEPEDFAVYYCQQWNSHPLTFGQGTTVEIK
Kd [1]: 0.787 nM | koff [1]: 0.000119 s⁻¹ | kon [1]: 151000 M⁻¹ s⁻¹

B4: humanized antibody 22Mono4DN4 (antibody, human IgG1, V domains shown)
VH: ELVQSGAEVKKPGSSVKVSCKASGYPFTNYWMHWVRQAPGQGLEWIGEINPSNGRTNYNEKFKSRATLTLDKSTSTAYMELSSLRSEDTAVYYCARGFAYWGQGTLVTVSS
VL: B2 VL with G9A, I57V, D59A, R76S, T102K
Kd [1]: 16.9 nM | koff [1]: 0.00114 s⁻¹ | kon [1]: 67300 M⁻¹ s⁻¹

Continued, values first:

Kd [1]: 25.6 nM | koff [1]: 0.002 s⁻¹ | kon [1]: 78000 M⁻¹ s⁻¹
B3: humanized antibody 22Mono3L7F (antibody, human IgG1, V domains shown)
VH: EVTLKESGPVLVKPTETLTLTCTASGYPFTNYWMHWVRQPPGKALEWIGEINPSNGRTNYNEKFKSRATLSLDKSKSQAVLTMTNMDPVDTATYYCARGFAYWGQGTLVTVSS
VL: B2 VL with G9A, D59A, R76S, T102K, V103L
notes: also called 22monoO3L7

EC50 [2]: 0.62 µg/mL | LogEC50 [3]: -0.314 log(ug/ml) | EC50 [4]: 0.916 µg/mL | EC50 [5]: 0.485 µg/mL | EC50 [6]: 0.49 µg/mL | LogEC50 [7]: -0.309 log(ug/ml) | EC50 [8]: 1.58 µg/mL | LogEC50 [9]: 0.198 log(ug/ml) | LogEC50 [10]: -0.0379 log(ug/ml) | LogEC50 [11]: -0.207 log(ug/ml)
B5: ch-72C7 chimeric recombinant antibody (antibody, V domains shown)
VH: QVQLQQPGAELVKPGTSVKLSCKASGYPFTNYWMHWVRQRPGQGLEWIGEINPSNGRTNYNEKFKSLATLTLDKSSSTAYMHLNSLTSEDSAVYYCARGFAYWGQGTLVTVSA
VL: QIVLSQFPAIMSASPGEKVTMTCSASSSVSFMHWYQQKSGTSPKRWIYDTTKLASGVPARFTGSGSGTSYSLTISSMEAEDAATYYCQQWNSHPLTFGPGTKLELK
notes: also called ch-72C7 antibody; antibody ch-72C7

EC50 [12]: 10.1 nM | Kd [13]: 9.47 nM | koff [13]: 0.000596 s⁻¹ | kon [13]: 62900 M⁻¹ s⁻¹ | Kd [14]: 30 nM | koff [14]: 0.00381 s⁻¹ | kon [14]: 127000 M⁻¹ s⁻¹ | EC50 [15]: 3.86 nM
B6: humanized CD3xGPRC5D bispecific antibody 22A8 (Structure D) (bispecific antibody)
heavy 1: QVQLVQSGAEVKKPGSSVKVSCRASGYPFTNYWMHWVRQAPGQGLEWIGEINPSNGRTNYNEKFKSRATLTLDKLTSTAYMELSSLTSEDTALYYCARGFAYWGQGTLVTVSSASTKGPSVFPLAPSSKSTSGGTAALGCLVKDYFPEPVTVSWNSGALTSGVHTFPAVLQSSGLYSLSSVVTVPSSSLGTQTYICNVNHKPSNTKVDKKVEPKSCDKTHTCPPCPAPPVAGPSVFLFPPKPKDTLMISRTPEVTCVVVDVSQEDPEVKFNWYVDGVEVHNAKTKPREEQFNSTYRVVSVLTVLHQDWLNGKEYKCKVSNKGLPSSIEKTISKAKGQPREPQVYTLPPSRDELTKNQVSLSCAVKGFYPSDIAVEWESNGQPENNYKTTPPVLDSDGSFFLVSKLTVDKSRWQQGNVFSCSVMHEALHNRFTQKSLSLSP
light: EIVLTQSPGTLSLSPGERATLSCSASSSVSFMHWYQQKPGQAPRRWIYDTTKLASGIPDRFSGSGSGTDYTLTISRLEPEDFAVYYCQQWNSHPLTFGQGTTVEIKRTVAAPSVFIFPPSDEQLKSGTASVVCLLNNFYPREAKVQWKVDNALQSGNSQESVTEQDSKDSTYSLSSTLTLSKADYEKHKVYACEVTHQGLSSPVTKSFNRGEC
heavy 2: EVQLVESGGGLVQPGGSLRLSCAASGFTFSTYAMNWVRQAPGKGLEWVGRIRSKYNNYATYYADSVKGRFTISRDDSKNSLYLQMNSLRAEDTAVYYCVRHGNFGTSYVSWFAYWGQGTLVTVSSASTKGPSVFPLAPSSKSTSGGTAKLGCLVKDYFPEPVTVSWNSGALTSGVHTFPACLQSSGLYSLSSVVTVPSSSLGTQTYICNVNHKPSNTKVDKKVEPKSSDKTHTCPPCPAPELLAGPDVFLFPPKPKDTLMISRTPEVTCVVVDVSHEDPEVKFNWYVDGVEVHNAKTKPREEQYNSTYRVVSVLTVLHQDWLNGKEYKCKVSNKALPLPEEKTISKAKGQPREPQVYTLPPSRDELTKNQVSLWCLVKGFYPSDIAVEWESNGQPENNYKTTPPVLDSDGSFFLYSKLTVDKSRWQQGNVFSCSVMHEALHNHYTQKSLSLSP
chain: QVQLVQSGAEVKKPGSSVKVSCRASGYPFTNYWMHWVRQAPGQGLEWIGEINPSNGRTNYNEKFKSRATLTLDKLTSTAYMELSSLTSEDTALYYCARGFAYWGQGTLVTVSSASTKGPSVFPLAPSSKSTSGGTAALGCLVKDYFPEPVTVSWNSGALTSGVHTFPAVLQSSGLYSLSSVVTVPSSSLGTQTYICNVNHKPSNTKVDKKVEPKSCDGGGGSGGGGSQAVVTQEPSLTVSPGGTVTLTCRSSTGAVTTSNYANWVQQKPGQAPRGLIGGTNKRAPWTPARFSGSLLGGKAALTLSGAQAEDEADYYCALWYSNLWVFGGGTKLTVLRTVAAPSVDIFPPSDEQLKSGTASVVCLLNNFYPREAKVQWKVDNALQSGNSCESVTEQDSKDSTYSLSSTLTLSKADYEKHKVYACEVTHQGLSSPVTKSFNRGES
notes: First polypeptide: VH1(GPRC5D, humanized)-CH1a-Fc; Second and fifth polypeptides are identical: VL(GPRC5D, humanized)-CLa; Third polypeptide: VH2(CD3)-CH1b-Fc; Fourth polypeptide: VH3(GPRC5D, humanized)-CH1a-linker-VL2(CD3)-CLb; Fc mutations are knob-into-hole (T366W; Y407V, T366S, L368A)
